Results from patent US20160298117, “PEANUT-BINDING NUCLEIC ACID MOLECULE AND USE THEREOF” (NEC Solution Innovators, Ltd., published 2016).
Substitutions are numbered along the chain they refer to.

T1: conarachin (undenatured) (Arachis hypogaea) (UniProt P43238)
T1 sequence: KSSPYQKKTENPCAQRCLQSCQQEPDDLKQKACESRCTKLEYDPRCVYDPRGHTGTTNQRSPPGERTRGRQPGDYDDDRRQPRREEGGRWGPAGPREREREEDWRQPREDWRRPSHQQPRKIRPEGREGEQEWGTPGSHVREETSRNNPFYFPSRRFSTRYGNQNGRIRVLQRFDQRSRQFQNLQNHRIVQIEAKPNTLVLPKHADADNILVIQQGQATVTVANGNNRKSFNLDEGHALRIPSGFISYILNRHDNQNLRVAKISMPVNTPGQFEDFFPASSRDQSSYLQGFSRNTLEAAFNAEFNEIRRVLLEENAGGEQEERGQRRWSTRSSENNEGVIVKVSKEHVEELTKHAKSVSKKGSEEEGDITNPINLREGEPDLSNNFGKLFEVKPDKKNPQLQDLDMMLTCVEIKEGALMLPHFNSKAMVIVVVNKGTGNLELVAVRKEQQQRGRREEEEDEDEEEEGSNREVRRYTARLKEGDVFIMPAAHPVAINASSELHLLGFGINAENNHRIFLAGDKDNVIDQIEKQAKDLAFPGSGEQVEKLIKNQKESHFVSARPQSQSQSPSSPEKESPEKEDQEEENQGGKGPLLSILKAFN

T2: Ara h1 (heat-denatured, purified from parboiled peanut) (Arachis hypogaea, UniProt P43238 P43238:26-626)
T2 sequence: T1 sequence

T3: conarachin (heat-denatured, boiled 10 min) (Arachis hypogaea, UniProt P43238 P43238:26-626)
T3 sequence: T1 sequence

T4: conarachin (undenatured) (Arachis hypogaea, UniProt P43238 P43238:26-626)
T4 sequence: T1 sequence

B1: PolydT20 (ssDNA)
DNA: TTTTTTTTTTTTTTTTTTTTAAAAAAAAAAAAAAAAAAAAAAAA
B2: P_NES02 (CONA161R8m1s31) (ssDNA)
DNA: GAATCCGCGGGGTAGCGGTGGCGAGCGATTCAAAAAAAAAAAAAAAAAAAAAAAA
B3: CT25_C3 (Pyrimidine rich) (ssDNA)
DNA: CTCTCTCTCTCTCCCTCTCTCTCTCAAAAAAAAAAAAAAAAAAAAAAAA
B4: P_NES04 (CONA171NNHR2R8m2s24) (ssDNA)
DNA: GTTTTCTAGGCCAATCTGATCAACAAAAAAAAAAAAAAAAAAAAAAAA
B5: P_NES03 (CONA161R2R8m1s32) (ssDNA)
DNA: GTTCGTGGTGTGTTGTGTGTGATTCCAGGGACAAAAAAAAAAAAAAAAAAAAAAAA
B6: P_NES01 (NAH1128R7Am2s19G) (ssDNA)
DNA: CCCGCCTGTATTCCTGTCCAAAAAAAAAAAAAAAAAAAAAAAA
B7: CT25_C11 (ssDNA)
DNA: B3 DNA with T10C, T12C, T16C, T18C
B8: CT25_C7 (ssDNA)
DNA: B3 DNA with T12C, T16C
B9: CT25_C0 (ssDNA)
DNA: B3 DNA with C14T
B10: CA25_C11 (ssDNA)
DNA: CACACACACCCCCCCCCCCACACACAAAAAAAAAAAAAAAAAAAAAAAAA
B11: CA25_C0 (ssDNA)
DNA: B10 DNA with C10A, C12A, C14A, C16A, C18A
B12: CA25_C3 (ssDNA)
DNA: B10 DNA with C10A, C12A, C16A, C18A
B13: CA25_C7 (ssDNA)
DNA: B10 DNA with C10A, C18A

molecular target: beta-conglycinin (heat-denatured, boiled 10 min) (Glycine max, UniProt P0DO16;P11827;P25974 P0DO16:63-605,P11827:63-621,P25974:24-439); assay: SPR; little binding, 18.75-300 nM; settings: tags: Sigma C5868-5GM
Protocol: (§1) Biotinylated poly(dT) at 5 μmol/L was injected to a flow cell of the sensor chip using ultrapure water (DDW), and the binding was allowed to proceed until the signal intensity (RU: Resonance Unit) reached about 900 RU. The biotinylated poly(dT) was prepared by biotinylating the 5′ end of 24-mer deoxythymidine. Then, the poly(dA)-added aptamer at 1 μmol/L was injected to the flow cell of the chip using an SPR buffer at a flow rate of 25 μL/min for 80 seconds, and the binding was allowed to proceed until the signal intensity reached about 800 RU. […] Subsequently, the sample was injected using the SPR buffer at a flow rate of 50 μL/min for 120 seconds, followed by washing performed by flowing the SPR buffer under the same conditions. Signal intensity measurement was performed concurrently with the injection of the sample and the washing with the SPR buffer.
As soybean allergen samples, undenatured β-conglycinin, heat-denatured β-conglycinin, undenatured soybean proteins, and heat-denatured soybean proteins were provided. A commercially available product (Sigma, trade name β-conglycinin from Glycine max (soybean), C5868-5GM) was used as the undenatured β-conglycinin. The heat-denatured β-conglycinin was prepared by boiling the undenatured β-conglycinin for 10 minutes and then collecting a supernatant fraction. As the undenatured soybean proteins and the heat-denatured soybean proteins, the undenatured soybean sample and the heat-denatured soybean sample in Example 1 were used.
(§2) The concentrations of the β-conglycinin were set to 18.75, 37.5, 75, 150, and 300 nmol/L, and the protein concentrations in the soybean samples were set to 1, 3, 10, 30, and 100 ppm. The SPR analysis was performed in the same manner as in Example 1, except that these samples were used. Then, from the results of the above-described SPR analysis, the relative binding value was determined regarding the proteins in each peanut sample bound to the aptamer immobilized on the chip.

Sequence of beta-conglycinin (heat-denatured, boiled 10 min) (P0DO16 63-605, chain 1 of 3): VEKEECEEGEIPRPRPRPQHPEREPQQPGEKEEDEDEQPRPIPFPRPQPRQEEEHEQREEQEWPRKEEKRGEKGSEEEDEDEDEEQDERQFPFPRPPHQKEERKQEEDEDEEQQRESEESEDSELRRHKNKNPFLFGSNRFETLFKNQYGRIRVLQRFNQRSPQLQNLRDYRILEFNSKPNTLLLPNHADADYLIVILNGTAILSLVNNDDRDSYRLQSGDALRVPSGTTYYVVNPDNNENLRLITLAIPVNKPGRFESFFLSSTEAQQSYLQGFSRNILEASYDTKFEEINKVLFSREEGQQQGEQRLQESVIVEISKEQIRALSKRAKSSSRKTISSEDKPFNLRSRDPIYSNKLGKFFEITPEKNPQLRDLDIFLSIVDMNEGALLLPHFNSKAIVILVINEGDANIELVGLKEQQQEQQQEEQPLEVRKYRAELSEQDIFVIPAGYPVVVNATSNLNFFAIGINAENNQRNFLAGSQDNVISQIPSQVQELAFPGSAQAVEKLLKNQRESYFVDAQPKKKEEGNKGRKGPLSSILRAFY
Sequence of beta-conglycinin (heat-denatured, boiled 10 min) (P11827 63-621, chain 2 of 3): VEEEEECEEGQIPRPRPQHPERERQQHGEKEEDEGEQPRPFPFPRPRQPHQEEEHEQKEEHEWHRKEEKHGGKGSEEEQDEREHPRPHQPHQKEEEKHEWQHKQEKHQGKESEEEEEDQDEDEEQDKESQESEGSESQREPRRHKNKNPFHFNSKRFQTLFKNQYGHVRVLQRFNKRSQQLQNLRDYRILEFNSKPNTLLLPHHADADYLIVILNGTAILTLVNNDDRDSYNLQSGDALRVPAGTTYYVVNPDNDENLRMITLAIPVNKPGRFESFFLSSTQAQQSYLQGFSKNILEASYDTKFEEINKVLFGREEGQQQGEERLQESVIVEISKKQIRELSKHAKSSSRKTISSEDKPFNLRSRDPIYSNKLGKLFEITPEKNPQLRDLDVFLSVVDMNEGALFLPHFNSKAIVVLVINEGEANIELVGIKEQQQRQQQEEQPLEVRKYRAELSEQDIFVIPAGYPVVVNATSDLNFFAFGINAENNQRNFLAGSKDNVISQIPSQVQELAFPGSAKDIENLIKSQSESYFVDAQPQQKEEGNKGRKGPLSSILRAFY
Sequence of beta-conglycinin (heat-denatured, boiled 10 min) (P25974 24-439, chain 3 of 3): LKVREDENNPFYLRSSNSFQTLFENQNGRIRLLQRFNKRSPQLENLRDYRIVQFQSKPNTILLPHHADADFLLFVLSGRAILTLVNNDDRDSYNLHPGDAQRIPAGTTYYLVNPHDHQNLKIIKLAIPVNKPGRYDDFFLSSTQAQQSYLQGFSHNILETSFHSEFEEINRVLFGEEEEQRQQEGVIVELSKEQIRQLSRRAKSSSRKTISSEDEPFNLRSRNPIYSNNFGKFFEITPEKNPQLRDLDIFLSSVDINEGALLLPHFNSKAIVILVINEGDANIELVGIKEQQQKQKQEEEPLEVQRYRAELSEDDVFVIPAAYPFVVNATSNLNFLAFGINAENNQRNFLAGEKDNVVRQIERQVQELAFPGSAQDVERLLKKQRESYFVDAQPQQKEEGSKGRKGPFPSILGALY

Molecule | binding result
B1 | no binding
B2 | no binding
B3 | no binding
B4 | no binding
B5 | no binding
B6 | no binding

molecular target: T1, conarachin (undenatured) (Arachis hypogaea); assay: SPR; settings: all T replaced by 5-tryptaminocarbonyl-dU (TrpdU); printed as P_M_NES01 in table; same SPR buffer

Molecule | Kd [nM]
GGATTCCGTGCCGTGCTAAAGGCCTCCCCGTTTATAGGCAGGTATCCGGCAGACTACTGGGCTTGCGACAAATGAAAAAAAAAAAAAAAAAAAAAAAA [P_NES_M01 (CONA170TEDAR2R8m1)] | 0.0388

molecular target: T2, Ara h1 (heat-denatured, purified from …); assay: SPR; 6.25-100 nM Ara h1; settings: tags: INDOOR biotechnologies NA-AH1-1
Protocol: (§3) First, as a sensor chip designed specifically for the ProteON, a streptavidin-immobilized chip (trade name: ProteOn NLC Sensor Chip, BioRad) was set in the ProteON XPR36. Biotinylated poly(dT) at 5 μmol/L was injected to a flow cell of the sensor chip using ultrapure water (DDW), and the binding was allowed to proceed until the signal intensity (RU: Resonance Unit) reached about 900 RU. The biotinylated poly(dT) was prepared by biotinylating the 5′ end of 24-mer deoxythymidine. Then, the poly(dA)-added aptamer at 1 μmol/L was injected to the flow cell of the chip using an SPR buffer at a flow rate of 25 μL/min for 80 seconds, and the binding was allowed to proceed until the signal intensity reached about 800 RU. […]
(§4) Samples were prepared by adjusting the Ara h1 used in Example 2 to predetermined concentrations (6.25, 12.5, 25, 50, and 100 nmol/L). […] From the results of the above-described SPR analysis, the relative binding value was determined regarding the Ara h1 bound to the aptamer immobilized on the chip. The relative binding value was calculated as the ratio of the protein binding measured value to the aptamer immobilization measured value (the protein binding measured value/the aptamer immobilization measured value).

Molecule | binding result
B2 | binds

molecular target: T2, Ara h1 (heat-denatured, purified from …); assay: SPR; 40 mM HEPES pH 7.5, 125 mM NaCl, 5 mM KCl, 1 mM MgCl2, 0.05% Tween 20; settings: tags: INDOOR biotechnologies NA-AH1-1
Protocol: as §1, with “First, as a sensor chip designed specifically for the ProteON, a streptavidin-immobilized chip (trade name: ProteOn NLC Sensor Chip, BioRad) was set in the ProteON XPR36. Biotinylated” for “Biotinylated”
Samples were prepared by adjusting commercially available peanut allergen Ara h1 (INDOOR biotechnologies, #NA-AH1-1, Blanched peanut, crushed [Runner cultivar]) to 50 nmol/L, 25 nmol/L, 12.5 nmol/L, and 6.25 nmol/L. The Ara h1, which is purified from parboiled peanuts, is a heat-denatured protein. The SPR analysis was carried out in the same manner as in Example 1, and the kinetic parameter was calculated from the results of the analysis.

Molecule | Kd [nM]
B1 | 0.19
B4 | 0.141
B5 | 0.173

molecular target: T2, Ara h1 (heat-denatured, purified from …); assay: SPR; very high binding; settings: tags: INDOOR biotechnologies NA-AH1-1
Protocol: as §1, with “First, as a sensor chip designed specifically for the ProteON, a streptavidin-immobilized chip (trade name: ProteOn NLC Sensor Chip, BioRad) was set in the ProteON XPR36. Biotinylated” for “Biotinylated”
(§5) Except that the following eight types of aptamers were used as pyrimidine-rich aptamers, the binding forces to Ara h1, heat-denatured peanut proteins, undenatured β-conglycinin, and heat-denatured soybean proteins were examined by SPR in the same manner as in the above-described examples.

Molecule | binding result
B7 | binds
B8 | binds
B9 | binds
B10 | binds
B11 | binds
B12 | binds
B13 | binds

molecular target: T3, conarachin (heat-denatured, boiled 10 …); assay: SPR; 3.125-50 nM; superior to undenatured; settings: tags: COSMO BIO CSB-CSB-NP003601PL
Protocol: as §3
as §4, with “undenatured conarachin” for “Ara h1 used in Example 2”, “(10, 30, 100, 300, and 1000 nmol/L) and the heat-denatured conarachin to predetermined concentrations (3.125, 6.25,” for “(6.25,”, “25,” for “25, 50,”, “50” for “100”, “conarachin” for “Ara h1”

Molecule | binding result
B2 | binds

molecular target: T4, conarachin (undenatured); assay: SPR; same SPR buffer; settings: tags: COSMO BIO CSB-CSB-NP003601PL
Protocol: as §3
(§6) Samples were prepared by adjusting commercially available peanut allergen conarachin (COSMO BIO, CSB-CSB-NP003601PL, Arachis hypogaea seed, Native) to 50 nmol/L, 25 nmol/L, 12.5 nmol/L, 6.25 nmol/L, and 3.125 nmol/L. The conarachin is a undenatured protein, and the conarachin generally accounts for about 17% of the total amount of peanut proteins in a peanut. The SPR analysis was carried out in the same manner as in Example 1, and the kinetic parameter was calculated from the results of the analysis.

Molecule | Kd [nM]
B1 | 0.263
B3 | 0.28

molecular target: T4, conarachin (undenatured); assay: SPR; 10-1000 nM conarachin; settings: tags: COSMO BIO CSB-CSB-NP003601PL
Protocol: as §3
as §4, with “undenatured conarachin” for “Ara h1 used in Example 2”, “(10, 30, 100, 300, and 1000 nmol/L) and the heat-denatured conarachin to predetermined concentrations (3.125, 6.25,” for “(6.25,”, “25,” for “25, 50,”, “50” for “100”, “conarachin” for “Ara h1”

Molecule | binding result
B2 | binds

molecular target: T5, beta-conglycinin (undenatured) (Glycine max, UniProt P0DO16;P11827;P25974 P0DO16:63-605,P11827:63-621,P25974:24-439); assay: SPR; little binding, 18.75-300 nM; settings: tags: Sigma C5868-5GM
Protocol: as §1, with “First, as a sensor chip designed specifically for the ProteON, a streptavidin-immobilized chip (trade name: ProteOn NLC Sensor Chip, BioRad) was set in the ProteON XPR36. Biotinylated” for “Biotinylated”
as §2, with “chip. The relative binding value was calculated as the ratio of the protein binding measured value to the aptamer immobilization measured value (the protein binding measured value/the aptamer immobilization measured value).” for “chip.”

T5 sequence (P0DO16 63-605, chain 1 of 3): as the sequence (P0DO16 63-605, chain 1 of 3) above
T5 sequence (P11827 63-621, chain 2 of 3): as the sequence (P11827 63-621, chain 2 of 3) above
T5 sequence (P25974 24-439, chain 3 of 3): as the sequence (P25974 24-439, chain 3 of 3) above

Molecule | binding result
B1 | no binding
B2 | no binding
B3 | no binding
B4 | no binding
B5 | no binding
B6 | no binding

molecular target: T5, beta-conglycinin (undenatured); assay: SPR; little binding; settings: tags: Sigma C5868-5GM
Protocol: as §1, with “First, as a sensor chip designed specifically for the ProteON, a streptavidin-immobilized chip (trade name: ProteOn NLC Sensor Chip, BioRad) was set in the ProteON XPR36. Biotinylated” for “Biotinylated”
as §5

Molecule | binding result
B7 | no binding
B8 | no binding
B9 | no binding
B10 | no binding
B11 | no binding
B12 | no binding
B13 | no binding

molecular target: T4, conarachin (undenatured); assay: SPR; 40 mM HEPES pH 7.5, 125 mM NaCl, 5 mM KCl, 1 mM MgCl2, 0.05% Tween 20; settings: tags: COSMO BIO CSB-CSB-NP003601PL
Protocol: as §3, §6

Molecule | Kd [nM]
B6 | 0.259
